Biological target: T1, domain V of human β2GPI (human, UniProt P02749 263-345)
T1 sequence (looked up): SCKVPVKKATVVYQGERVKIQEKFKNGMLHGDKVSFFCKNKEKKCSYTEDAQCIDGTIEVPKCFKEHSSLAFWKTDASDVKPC
Assay: ITC

Kd: 14 µM | dH: -4.3 ± 0.2 kcal/mol | stoichiometry N: 1.04 ± 0.03
B1: Asn36/Asp mutant of mouse A1 (domain or fragment)
chain: not shown

Source: PMC4351136 (The FEBS journal, 2015)
